A word on the Kd: it is the constant that tells how readily two partners part at equilibrium. A low value points to higher affinity. Broadly, the stoichiometry N is the number of molecules, sites or subunits per partner or assembly.

The data set “SEC” concerns the molecule itself. The data set is described as follows: SEC. Background: In gel filtration, larger molecules generally elute earlier.
The next data set addresses T1, SeqAΔ(41-59)-A25R (Escherichia coli, UniProt P0AFY8 1-181, A25R;del41-59).
T1 sequence: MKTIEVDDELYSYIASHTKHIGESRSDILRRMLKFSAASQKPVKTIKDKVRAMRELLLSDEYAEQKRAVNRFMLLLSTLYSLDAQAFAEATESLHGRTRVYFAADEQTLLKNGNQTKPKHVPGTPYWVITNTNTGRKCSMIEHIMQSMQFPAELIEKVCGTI
The experiment in a line: EMSA. Background: Mobility shift assays separate free from complexed probe on a gel.

B1: SeqA-A25R (natural protein, E. coli, UniProt P0AFY8 1-181, looked up)
chain: MKTIEVDDELYSYIASHTKHIGESRSDILRRMLKFSAASQPAAPVTKEVRVASPAIVEAKPVKTIKDKVRAMRELLLSDEYAEQKRAVNRFMLLLSTLYSLDAQAFAEATESLHGRTRVYFAADEQTLLKNGNQTKPKHVPGTPYWVITNTNTGRKCSMIEHIMQSMQFPAELIEKVCGTI
For the molecule B1, in the data set “SEC”, the binding result was “binds”.

B2: hemimethylated tandem GATC duplex (crystallization oligonucleotide) (dsDNA)
DNA 1: GAGTCGATCGGCGGGATCCTTA
DNA 2: TCTAAGGATCCCGCCGATCGAC
modifications: N6-methyladenine at positions 7 and 16 of strand 1; strand 2 unmethylated
B2 had a Kd in the data set with SeqAΔ(41-59)-A25R of roughly 90 nM.

B3: SeqAΔ(41–59)-A25R (natural protein, E. coli, UniProt P0AFY8 1-181, looked up)
chain: MKTIEVDDELYSYIASHTKHIGESRSDILRRMLKFSAASQKPVKTIKDKVRAMRELLLSDEYAEQKRAVNRFMLLLSTLYSLDAQAFAEATESLHGRTRVYFAADEQTLLKNGNQTKPKHVPGTPYWVITNTNTGRKCSMIEHIMQSMQFPAELIEKVCGTI
B3: the “stoichiometry N” value in the data set “SEC” was determined as 2.
